Measured values as given in patent US9725518B2, “Antibodies that bind to Jagged 1” (Cancer Research Technology Limited, priority 2013, dated 2017).

Assays:
[1] = system: J1-induced Notch signalling; experiment: Luciferase assay, LS174T RBPJ reporter stimulated with J1 protein; assay type: cell-based, human
Experimental: FIG. 9. […] (A) The colorectal cancer cell line LS174T expressing luciferase under the control of Notch co-factor RBPJ was stimulated with mammalian cell-expressed soluble J1 proteins (NE3-Fc and NE12-Fc) or a control protein in the presence of J1 mAbs (10 μg/ml), and luciferase activity was measured. […] (C) Breast cancer MDA-MB-231 cells were cultured with J1 mAbs. The expression level of the Notch target gene HES1 was measured by qPCR using β2m as the control gene. In all experiments the γ-secretase inhibitor DBZ was used as a positive control for pan Notch inhibition and a control mAb (IgG2b or IgG1) or no treatment (NT) were negative controls.
FIG. 20. Inhibition of human Jagged 1/Notch signalling by humanised and de-immunised J1-mAbs in vitro. The colorectal cancer cell line LS174T expressing luciferase under the control of Notch co-factor RbPJ was stimulated with mammalian cell-expressed recombinant J1 protein (NE3-Fc protein, right bar for each treatment) or a control protein (left bar) in the presence of J1 mAbs (10 μg/ml), and luciferase activity was measured. The parental murine monoclonal antibody (Mo), Murine IgG1, DMSO and DBZ were used as controls.
Having established that the J1 mAbs were able to block the binding of the J1 ligand to its receptor N1 their effect on the activity of the Notch signalling pathway was investigated. The human colorectal cancer cell line LS174T, stably expressing a luciferase reporter gene under control of Notch co-factor RBPJ, was stimulated with two forms of immobilised J1 protein: N-terminus to EGF3 and N-terminus to EGF12. […] Importantly, the best two J1 mAbs (J1-65D and J1-183D) were also tested against other Notch ligands in order to verify ligand specificity.
Prior to experiment, clear bottom 96-well plates (CELLSTAR) wells were coated with either J1-ECD fragments (NE3-Fc and NE12-Fc), other Notch-ligands (J2 or DLL4; both from R&D) or control protein (mlgG2b) at the concentration of 5 μg/ml in 0.1% BSA-PBS (overnight incubation at 4° C.). LS174T colorectal cancer cells, expressing the luciferase gene under control of the Notch cofactor RbPJ, were then plated (4×10^4 cells/well) in the presence of different mAbs (10 μg/ml) or DBZ (100 nM). Luciferase activity was then quantified 24 hours later using the Bright-Glo Luciferase Assay System (Promega).

[2] = system: murine Hes1 (N1 signalling mediated via mJ1); experiment: Hes1 qPCR in B16F10 cells stably expressing murine J1; assay type: cell-based, mouse; details: mAb 10 μg/ml, DBZ 100 nM, 7 days
Experimental: FIG. 10. […] (A) Mouse melanoma B16F10 cells stably expressing murine J1 were cultured with 10 μg/ml of each J1 mAb, or an IgG1 control antibody, for 7 days with fresh mAb supplemented every 2 days. The γ-secretase inhibitor DBZ (100 nM) was used as a control for Notch inhibition. Cells were harvested, total RNA extracted and cDNA was synthesised. Murine Hes1 expression levels were detected by real-time PCR normalised against GAPDH. […] (B) Human breast cancer (MDA-MB-231) and primary endothelial cells (HUVEC) were cultured over plates coated with recombinant rat Jagged1 (rrJag1-Fc) or a control protein (mIgG1) in the presence of 10 μg/ml of J1 mAbs or isotype control Ab. 24 hours later cells were harvested, total RNA extracted and cDNA was synthesised. Expression of the human Notch-target genes HES1 and HEY2 was analysed by real-time PCR and β2-microglobulin was used as control gene. Results from one representative experiment are shown. […]
Total RNA from cell cultures/spheroids was isolated using RNeasy mini kit (Qiagen, UK) according to the manufacturer's instructions. […] Quantitative PCR (qPCR) analysis was performed in triplicate using the SYBR GreenER qPCR SuperMix Universal (Invitrogen) and Chromo4 fluorescence detector (MJ Research, USA). Relative quantification was done using the ΔΔCt method normalizing to β2-microglobulin gene or murine β-Actin expression. […]

[3] = target: T1, N1 binding to cell surface expressed hJ1 (Homo sapiens, UniProt P78504); experiment: Notch binding blocking assay (FACS): N1 EGF11-13 beads staining human J1-expressing cells; parameters: key: +: Complete blocking; X: No blocking
T1 construct: cell expressed full length human J1 (hJ1; HEK293 transfectants); expressed in transfected cells; host or cells: HEK293
Procedure, shortened: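 E. coli-expressed, refolded human N1 EGF11-13 (411-526), biotinylated on avidin-coated fluorescent beads, stained human J1-transfected HEK293 cells with hybridoma supernatant or purified antibody diluted in HBSS/10% FCS. Purified mAbs titrated in dilution series; bead binding read by flow cytometry.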

MDA-MB-231 spheroids = experiment: Spheroid assay (3-D growth), MDA-MB-231; assay type: cell-based, human; details: humanised variants 5 μg/ml
Excerpt: Similar findings were also reported for the Merck anti-N1 mAbs when tested on the LS-1034 cell line. As cell-cell contact is required to activate Notch signalling a spheroid-based 3-D growth model was used to test the ability of the J1 mAbs to block tumour growth. Furthermore, the 3-D model better mimics in vivo conditions including hypoxia and acidosis, allowing evaluation of the mAbs effect in a more realistic setting. Spheroids were generated from MDA-MB-231 breast cancer cells and the ability of different concentrations of the J1-65D mAb to inhibit their growth was evaluated.
Cells were harvested and resuspended in 2.5% Matrigel (BD)-complete DMEM medium. Cell suspension was plated on low-adherence 96-well plates (Corning) (200 μl/well) and spheroids, of approximately fixed cell number (5×10^3 cells for MDA-MB-231 and MDA-MB-468 cell lines; 2×10^3 for MCF7 cells) were then generated by spinning plates at 1800 rpm for 10 minutes. The following day, pictures of the spheroids were taken (day 1) and treatments were added (mAbs were used at 10 μg/ml [5 μg/ml for humanised antibodies] while DBZ was used at the concentration of 100 nM). In some experiments Paclitaxel (1 nM) and Doxorubicin (20 nM) were used in combination with J1-65D mAb treatment. Every 2 days pictures were taken and half of the medium was replaced with fresh one containing mAb/drug. At the end of the experiment, spheroids were either lysed for RNA extraction, were processed and paraffin-embedded for immunohistochemical analysis or were dissociated by pipetting and trypsinization into single cell suspensions for FACS analysis. Spheroid size was evaluated by image analysis using ImageJ software.

[4] = Soluble aggregates of transiently expressed antibodies; assay type: physicochemical; details: Protein A purified antibody
Excerpt: The protein yield of these antibodies, their levels of soluble aggregates and their binding affinity to the immunogen (J1-DE3) are illustrated in (Table 6).

[5] = humanised/chimeric mAbs 10 μg/ml, NE3-Fc, DBZ control
[6] = final antibody concentration 0.2 μg/ml
[7] = final antibody concentration 0.4 μg/ml
[8] = final antibody concentration 0.6 μg/ml
[9] = final antibody concentration 1.0 μg/ml

T1 sequence (P78504 34-1218): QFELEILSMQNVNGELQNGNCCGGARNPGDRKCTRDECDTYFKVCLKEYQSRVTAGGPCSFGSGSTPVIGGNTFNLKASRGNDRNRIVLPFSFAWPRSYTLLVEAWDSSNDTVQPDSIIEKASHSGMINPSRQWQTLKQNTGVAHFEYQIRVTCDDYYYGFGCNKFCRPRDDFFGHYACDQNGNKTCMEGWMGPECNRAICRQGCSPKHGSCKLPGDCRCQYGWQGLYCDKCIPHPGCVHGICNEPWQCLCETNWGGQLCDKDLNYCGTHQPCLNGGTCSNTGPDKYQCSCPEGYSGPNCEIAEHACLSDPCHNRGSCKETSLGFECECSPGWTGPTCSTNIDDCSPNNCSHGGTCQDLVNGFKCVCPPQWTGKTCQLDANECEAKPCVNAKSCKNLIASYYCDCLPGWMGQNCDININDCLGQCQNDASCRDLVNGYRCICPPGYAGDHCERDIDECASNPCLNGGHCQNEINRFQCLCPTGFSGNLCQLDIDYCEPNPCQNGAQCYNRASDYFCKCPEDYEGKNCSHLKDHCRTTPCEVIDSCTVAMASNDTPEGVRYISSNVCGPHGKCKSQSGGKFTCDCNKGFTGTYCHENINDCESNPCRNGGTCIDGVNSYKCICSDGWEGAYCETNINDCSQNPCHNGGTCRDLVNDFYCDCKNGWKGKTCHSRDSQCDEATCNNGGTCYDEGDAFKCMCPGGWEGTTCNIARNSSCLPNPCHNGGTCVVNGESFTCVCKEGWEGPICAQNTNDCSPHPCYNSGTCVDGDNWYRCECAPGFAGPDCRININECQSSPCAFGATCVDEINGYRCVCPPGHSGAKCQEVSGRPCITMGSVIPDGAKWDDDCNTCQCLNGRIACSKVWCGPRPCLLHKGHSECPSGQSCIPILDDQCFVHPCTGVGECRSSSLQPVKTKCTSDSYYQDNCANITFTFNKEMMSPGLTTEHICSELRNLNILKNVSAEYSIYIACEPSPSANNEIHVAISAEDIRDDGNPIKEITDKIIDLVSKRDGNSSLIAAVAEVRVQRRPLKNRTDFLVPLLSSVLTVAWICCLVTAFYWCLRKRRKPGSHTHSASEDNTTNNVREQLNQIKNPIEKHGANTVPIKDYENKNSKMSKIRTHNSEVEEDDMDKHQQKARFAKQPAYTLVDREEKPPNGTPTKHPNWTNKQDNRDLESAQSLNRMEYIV

inhibition of J1-induced luciferase activity ([1]; NE3-Fc and NE12-Fc, mAbs 10 μg/ml, DBZ 100 nM) | Blocking of Notch1 binding to cell surface Jagged 1 [3, 6] | Blocking of Notch1 binding to cell surface Jagged 1 [3, 7] | Blocking of Notch1 binding to cell surface Jagged 1 [3, 8] | Blocking of Notch1 binding to cell surface Jagged 1 [3, 9] | Molecule | inhibition of J1-induced luciferase activity [1, 5] | repression of murine Hes1 expression [2] | spheroid growth inhibition (MDA-MB-231 spheroids) | % soluble aggregate [4] [%]
blocked | – | – | – | – | C[C@H](NC(=O)Cc1cc(F)cc(F)c1)C(=O)N[C@@H]1C(=O)N(C)c2ccccc2-c2ccccc21 [DBZ, reference compound] | blocked | Repression of Hes1 expression was observed | – | –
– | X | + (Complete blocking) | + (Complete blocking) | + (Complete blocking) | J1-183D variant 1: humanised/de-immunised J1-183D: J1-183D_VL_1 + J1-183D_VH_1 (antibody, V domains shown) VH: QVQLVQSGAELKKPGASVKVSCKVSGYAFTDYAIHWIRQAPGQGLEWMGIINTYYGDSKYNQKFKDRVTMTVDKSTSTAYMELSSLRSEDTAVYYCARGYDGFAYWGQGTLVTVSSASTKGP VL: DIQMTQSPSSLSASVGDRVTITCRTSENIYSYLTWYQQKPGKAPKLLVYNAKILAAGVPSRFSGSGSGTDFTLTISSLQPEDFATYYCQHHYDIPWTFGGGTKLEIKRT | inhibited as effectively as by the parental murine mAb | – | most comparable efficacy to the original murine antibody | 3.65
– | X | + (Complete blocking) | + (Complete blocking) | + (Complete blocking) | J1-183D variant 8: humanised/de-immunised J1-183D: J1-183D_VL_2 + J1-183D_VH_4 (antibody, V domains shown) VH: QVQLVQSGAEVKKPGASVKVSCKASGYTFTDYAIHWVRQAPGQGLEWMGIINTYYGDSKYAQKFQGRVTMTVDTSTSTAYMELSSLRSEDTAVYYCARGYDGFAYWGQGTLVTVSSASTKGP VL: DIQMTQSPSSLSASVGDRVTITCRTSENIYSYLTWYQQKPGKAPKLLIYNAKTLASGVPSRFSGSGSGTDFTLTISSLQPEDFATYYCQHHYDIPWTFGGGTKLEIKRT | inhibited as effectively as by the parental murine mAb | – | increasingly less effect | 0.93
– | X | + (Complete blocking) | + (Complete blocking) | + (Complete blocking) | J1-183D variant 9: humanised/de-immunised J1-183D: J1-183D_VL_3 + J1-183D_VH_1 (antibody, V domains shown) VH: QVQLVQSGAELKKPGASVKVSCKVSGYAFTDYAIHWIRQAPGQGLEWMGIINTYYGDSKYNQKFKDRVTMTVDKSTSTAYMELSSLRSEDTAVYYCARGYDGFAYWGQGTLVTVSSASTKGP VL: DIQMTQSPSSLSASVGDRVTITCRTSENIYSYLTWYQQKPGKAPKLLIYNAKILDSGVPSRFSGSGSGTDFTLTISSLQPEDFATYYCQHHYDIPWTFGGGTKLEIKRT | inhibited as effectively as by the parental murine mAb | – | increasingly less effect | 3.49
